The supplement of paper PMC9233669
This sample holds only a part of the variants without activity.

Tests used:
biotinyl-Met-oxazolone = assay: self-aminoacylation, catalytic enhancement (BMO) (fold over background); higher = more active; k-Seq, kA / k0A0; sequences stand for … in GGGAAUGGAUCCACAUCUACGAAUUC…UUCACUGCAGACUUGACGAAGCUG
Outline: (§1)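 The uncatalyzed rate is the low-activity peak of a bimodal Gaussian fit, and catalytic enhancement is median kA divided by it. The kA values came from pseudo-first-order fits, with 1000 bootstraps, of per-sequence fraction reacted measured by streptavidin capture, triplicate qPCR and Illumina sequencing. Mutagenized RNA pools with a 21-nt variable region (0.43 μM) were reacted with each biotinyl-aminoacyl-oxazolone at 2–1250 μM in 50 μL HEPES/NaCl/KCl/MgCl2/CaCl2 buffer with 5% acetonitrile, pH 6.9–7.0, for 90 minutes at room temperature.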

biotinyl-Val-oxazolone = assay: self-aminoacylation, catalytic enhancement (BVO) (fold over background); higher = more active; k-Seq, kA / k0A0; sequences stand for … in GGGAAUGGAUCCACAUCUACGAAUUC…UUCACUGCAGACUUGACGAAGCUG
Outline: as §1

biotinyl-Trp-oxazolone = assay: self-aminoacylation, catalytic enhancement (BWO) (fold over background); higher = more active; k-Seq, kA / k0A0; sequences stand for … in GGGAAUGGAUCCACAUCUACGAAUUC…UUCACUGCAGACUUGACGAAGCUG
Outline: as §1

biotinyl-Leu-oxazolone = assay: self-aminoacylation, catalytic enhancement (BLO) (fold over background); higher = more active; k-Seq, kA / k0A0; sequences stand for … in GGGAAUGGAUCCACAUCUACGAAUUC…UUCACUGCAGACUUGACGAAGCUG
Outline: as §1

biotinyl-Ile-oxazolone = assay: self-aminoacylation, catalytic enhancement (BIO) (fold over background); higher = more active; k-Seq, kA / k0A0; sequences stand for … in GGGAAUGGAUCCACAUCUACGAAUUC…UUCACUGCAGACUUGACGAAGCUG
Outline: as §1

biotinyl-Phe-oxazolone = assay: self-aminoacylation, catalytic enhancement (BFO) (fold over background); higher = more active; k-Seq, kA / k0A0; sequences stand for … in GGGAAUGGAUCCACAUCUACGAAUUC…UUCACUGCAGACUUGACGAAGCUG
Outline: as §1

Sequence | self-aminoacylation (biotinyl-Met-oxazolone) | self-aminoacylation (biotinyl-Val-oxazolone) | self-aminoacylation (biotinyl-Trp-oxazolone) | self-aminoacylation (biotinyl-Leu-oxazolone) | self-aminoacylation (biotinyl-Ile-oxazolone) | self-aminoacylation (biotinyl-Phe-oxazolone)
AAGUUUGUUAAUAUUCGCAAG [Fam3.1 aminoacylation ribozyme variant] | 1.15 | 1.43 | 1.41 | 1.45 | 1.55 | 1.17
AAGUUUGUUAAUCGUCGCAAG [Fam3.1 aminoacylation ribozyme variant] | 1.35 | 1.22 | 1.04 | 1.15 | 1.21 | 1.05
AAGUUUUAUAAUAGUCGCAAG [Fam3.1 aminoacylation ribozyme variant] | 1.77 | 1.64 | 1.99 | 1.61 | 1.72 | 3.02
AAGUUUUCUAAUAGUCACAAG [Fam3.1 aminoacylation ribozyme variant] | 1.25 | 1.64 | 1.87 | 1.4 | 1.64 | 2.39
AAGUUUUCUAAUAGUCCCAAG [Fam3.1 aminoacylation ribozyme variant] | 0.891 | 1.08 | 1.45 | 0.929 | 1.02 | 2.7
AAGUUUUCUAAUAGUGGCAAG [Fam3.1 aminoacylation ribozyme variant] | 0.758 | 0.662 | 0.658 | 0.804 | 0.856 | 0.75
AAGUUUUCUAAUCGUCGCAAG [Fam3.1 aminoacylation ribozyme variant] | 1.68 | 1.69 | 1.65 | 1.79 | 1.75 | 2.56
AAUAACCUGGUCAUCGAGUGA [Fam2.1 aminoacylation ribozyme variant] | 5.9 | 3.55 | 7.36 | 5.79 | 3.67 | 9.51
AAUACCAUGGUCAUCGAGUGA [Fam2.1 aminoacylation ribozyme variant] | 6.12 | 2.89 | 7.7 | 6.22 | 3.19 | 16.2
AAUACCCUGAUCAUCGAGUGA [Fam2.1 aminoacylation ribozyme variant] | 6.32 | 3.21 | 7.59 | 6.22 | 2.79 | 18.6
AAUACCCUGGUCAUCGGGUGA [Fam2.1 aminoacylation ribozyme variant] | 12.1 | 7.46 | 15.9 | 11.8 | 7.82 | 77.3
AAUACCCUGGUUAUCGAGUGA [Fam2.1 aminoacylation ribozyme variant] | 6.97 | 3.59 | 9.84 | 7.89 | 3.37 | 30.8
AAUACCCUUGUCAUCGAGUGA [Fam2.1 aminoacylation ribozyme variant] | 4.58 | 2.43 | 5.93 | 4.72 | 2.42 | 5.23
AAUAUCCUGGUCAUCGAGUGA [Fam2.1 aminoacylation ribozyme variant] | 8.66 | 4.34 | 10.1 | 8.92 | 4.6 | 26.2
AAUAUUGCUAAUAGUCGCAAG [Fam3.1 aminoacylation ribozyme variant] | 1.68 | 1.76 | 1.95 | 1.7 | 1.86 | 2.4
AAUCACCAAGGUCAUCGGGUG [Fam2.2 aminoacylation ribozyme variant] | 6.79 | 5.67 | 8.66 | 10.7 | 4.92 | 54.3
AAUCACCUACGUCAUCGGGUG [Fam2.2 aminoacylation ribozyme variant] | 6.56 | 3.79 | 7.27 | 6.01 | 4.41 | 53
AAUCACCUAGGUCAUCGAGUG [Fam2.2 aminoacylation ribozyme variant] | 3.92 | 2.86 | 3.26 | 4.65 | 3.52 | 7.56
AAUCACCUAGGUCAUCGCGUG [Fam2.2 aminoacylation ribozyme variant] | 11.3 | 7.32 | 10.4 | 12.1 | 6.41 | 70.6
AAUCACCUAGGUCAUCGGGCG [Fam2.2 aminoacylation ribozyme variant] | 4.05 | 2.77 | 3.94 | 4.1 | 3.35 | 7.85
AAUCACCUAGGUCAUUGGGUG [Fam2.2 aminoacylation ribozyme variant] | 2.74 | 2.65 | 4.15 | 3.6 | 2.94 | 13.1
AAUCACCUAGGUCCUCGGGUG [Fam2.2 aminoacylation ribozyme variant] | 3.73 | 3.29 | 5.34 | 5.07 | 3.74 | 19.7
AAUCCCCUAGGUCAUCGGGUG [Fam2.2 aminoacylation ribozyme variant] | 13.5 | 8.17 | 11.8 | 16.3 | 7.49 | 104
AAUUCCCUGGUCAUCGAGUGA [Fam2.1 aminoacylation ribozyme variant] | 10.1 | 6.09 | 13 | 10.8 | 5.6 | 41.5
AAUUCUGCUAAUAGUCGCAAG [Fam3.1 aminoacylation ribozyme variant] | 1.81 | 1.56 | 4.46 | 1.61 | 1.88 | 12.7
AAUUUUGAUAAUAGUCGCAAG [Fam3.1 aminoacylation ribozyme variant] | 1.66 | 1.39 | 1.37 | 1.64 | 1.7 | 2.09

Sequence | self-aminoacylation (biotinyl-Met-oxazolone) | self-aminoacylation (biotinyl-Val-oxazolone) | self-aminoacylation (biotinyl-Trp-oxazolone) | self-aminoacylation (biotinyl-Leu-oxazolone) | self-aminoacylation (biotinyl-Ile-oxazolone) | self-aminoacylation (biotinyl-Phe-oxazolone)
AAUUUUGCUAAUAGGCGCAAG [Fam3.1 aminoacylation ribozyme variant] | 1.43 | 1.28 | 1.71 | 1.12 | 1.57 | 1.5
AAUUUUGCUAAUAGUAGCAAG [Fam3.1 aminoacylation ribozyme variant] | 1.31 | 1.37 | 0.996 | 1.75 | 1.41 | 1.11
AAUUUUGCUAAUAGUCGCAAC [Fam3.1 aminoacylation ribozyme variant] | 1.41 | 1.8 | 1.95 | 1.44 | 1.64 | 2.23
AAUUUUGCUAAUAGUCGCGAG [Fam3.1 aminoacylation ribozyme variant] | 1.99 | 1.51 | 2.02 | 1.7 | 2.28 | 8.52
AAUUUUGCUAAUAGUCGUAAG [Fam3.1 aminoacylation ribozyme variant] | 1.11 | 1.44 | 4.02 | 1.31 | 1.42 | 10.9
AAUUUUGCUAAUAGUCUCAAG [Fam3.1 aminoacylation ribozyme variant] | 1.21 | 1.26 | 1.23 | 1.19 | 1.38 | 2.56
AAUUUUGCUAAUUGUCGCAAG [Fam3.1 aminoacylation ribozyme variant] | 1.92 | 1.73 | 2.21 | 2.13 | 2.45 | 2.61
AAUUUUGUUAAUAGUCGCAAG [Fam3.1 aminoacylation ribozyme variant] | 2.05 | 1.72 | 2.56 | 1.93 | 2.04 | 2.48
ACACACUUCAAGCAACCGGUC [Fam1B.1 aminoacylation ribozyme variant] | 1.51 | 1.54 | 1.13 | 1.17 | 1.18 | 1.43
ACACACUUCAAGCAAUCGGAC [Fam1B.1 aminoacylation ribozyme variant] | 0.97 | 1.02 | 1.43 | 0.979 | 1.1 | 1.42
ACACACUUCAAGCAAUCGGGC [Fam1B.1 aminoacylation ribozyme variant] | 2.81 | 2.73 | 3.29 | 2.34 | 2.48 | 2.02
ACACACUUCAAGCAAUCGUUC [Fam1B.1 aminoacylation ribozyme variant] | 0.825 | 1.23 | 1.21 | 0.787 | 1.02 | 1.43
ACACACUUCAAGCAAUCUGUC [Fam1B.1 aminoacylation ribozyme variant] | 0.567 | 1.02 | 0.683 | 0.58 | 0.759 | 1.39
ACACACUUCAAGCAAUUGGUC [Fam1B.1 aminoacylation ribozyme variant] | 1.01 | 1.17 | 1.29 | 0.945 | 1.09 | 1.61
ACACACUUCAAGCAUUCGGUC [Fam1B.1 aminoacylation ribozyme variant] | 1.68 | 1.87 | 2.13 | 1.8 | 1.81 | 1.5
ACACCCUUCAAGCAAUCGGUC [Fam1B.1 aminoacylation ribozyme variant] | 0.897 | 1.02 | 1.59 | 0.984 | 1.01 | 2.12
ACACUCUUCAAGCAAUCGGUC [Fam1B.1 aminoacylation ribozyme variant] | 0.9 | 1.08 | 2.4 | 1.11 | 0.997 | 4.37
ACCACCCUGGUCAUCGAGUGA [Fam2.1 aminoacylation ribozyme variant] | 10.1 | 5.17 | 9.59 | 9.22 | 4.75 | 27.9
ACGACCCUGGUCAUCGAGUGA [Fam2.1 aminoacylation ribozyme variant] | 6.93 | 3.77 | 7.11 | 6.52 | 3.57 | 9.21
ACGUUUACUAAUAGUCGCAAG [Fam3.1 aminoacylation ribozyme variant] | 1.35 | 1.53 | 1.41 | 1.8 | 1.56 | 2.57
ACGUUUGCGAAUAGUCGCAAG [Fam3.1 aminoacylation ribozyme variant] | 1.58 | 1.45 | 2.17 | 1.85 | 1.97 | 3.56
ACGUUUGCUAACAGUCGCAAG [Fam3.1 aminoacylation ribozyme variant] | 1.53 | 1.29 | 1.94 | 1.97 | 1.5 | 4.28
ACGUUUGCUAAUAGGCGCAAG [Fam3.1 aminoacylation ribozyme variant] | 1.35 | 1.61 | 0.911 | 1.67 | 1.94 | 5.88
ACGUUUGCUAAUAGUCACAAG [Fam3.1 aminoacylation ribozyme variant] | 0.95 | 1.39 | 1.82 | 1.15 | 1.34 | 3.82
ACGUUUGCUAAUAGUCGAAAG [Fam3.1 aminoacylation ribozyme variant] | 1.58 | 1.24 | 2.68 | 1.09 | 1.37 | 5.96
